Data reported in patent US20200392225A1 (Novartis, published 2020).

T1: human NPR1 expressed on CHO-K1 cells (human, UniProt P16066 33-1061)
T1 sequence: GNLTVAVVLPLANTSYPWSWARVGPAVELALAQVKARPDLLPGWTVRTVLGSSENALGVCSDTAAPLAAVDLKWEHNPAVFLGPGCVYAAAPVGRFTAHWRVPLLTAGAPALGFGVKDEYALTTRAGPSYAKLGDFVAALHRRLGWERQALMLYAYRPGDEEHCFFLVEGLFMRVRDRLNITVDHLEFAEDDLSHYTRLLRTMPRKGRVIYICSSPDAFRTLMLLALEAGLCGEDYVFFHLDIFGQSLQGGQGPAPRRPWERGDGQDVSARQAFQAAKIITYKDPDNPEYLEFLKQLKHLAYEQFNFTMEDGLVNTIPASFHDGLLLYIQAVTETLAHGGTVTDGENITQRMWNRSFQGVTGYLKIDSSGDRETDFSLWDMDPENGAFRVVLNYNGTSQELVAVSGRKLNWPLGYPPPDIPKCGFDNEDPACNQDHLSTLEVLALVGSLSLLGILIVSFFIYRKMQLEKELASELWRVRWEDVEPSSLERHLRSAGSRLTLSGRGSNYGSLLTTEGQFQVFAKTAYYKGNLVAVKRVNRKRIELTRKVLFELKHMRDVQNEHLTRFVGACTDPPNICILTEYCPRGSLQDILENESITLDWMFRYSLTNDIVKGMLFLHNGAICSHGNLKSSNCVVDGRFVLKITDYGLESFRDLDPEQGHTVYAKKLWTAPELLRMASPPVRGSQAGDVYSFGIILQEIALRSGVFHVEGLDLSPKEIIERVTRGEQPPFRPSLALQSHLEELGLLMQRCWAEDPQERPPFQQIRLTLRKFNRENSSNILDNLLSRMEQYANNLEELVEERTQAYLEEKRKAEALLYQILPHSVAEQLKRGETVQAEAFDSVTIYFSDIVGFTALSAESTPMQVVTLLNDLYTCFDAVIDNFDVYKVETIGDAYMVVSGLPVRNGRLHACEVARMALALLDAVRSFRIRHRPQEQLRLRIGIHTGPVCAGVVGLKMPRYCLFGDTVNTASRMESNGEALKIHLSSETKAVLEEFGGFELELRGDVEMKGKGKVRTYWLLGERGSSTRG

T2: human NPR1-ANP complex (human, UniProt P01160 124-151, limits assumed)
T2 construct: Receptor antigen measured in the presence of ANP; also called hNPR1 + ANP; hNPR1-ANP-complex
T2 sequence: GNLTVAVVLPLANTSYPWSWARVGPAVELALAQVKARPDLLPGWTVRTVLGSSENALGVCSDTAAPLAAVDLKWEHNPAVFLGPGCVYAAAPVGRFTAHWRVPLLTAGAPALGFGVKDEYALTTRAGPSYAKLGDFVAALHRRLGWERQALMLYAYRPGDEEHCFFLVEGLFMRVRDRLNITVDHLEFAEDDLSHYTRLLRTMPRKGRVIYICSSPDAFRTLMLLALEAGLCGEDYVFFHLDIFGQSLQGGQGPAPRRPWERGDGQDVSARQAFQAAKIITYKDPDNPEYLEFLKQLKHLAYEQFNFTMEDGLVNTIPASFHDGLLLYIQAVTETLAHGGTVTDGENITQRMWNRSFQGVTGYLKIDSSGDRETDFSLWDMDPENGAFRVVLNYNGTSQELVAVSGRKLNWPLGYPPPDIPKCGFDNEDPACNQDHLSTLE
T2 sequence (peptide): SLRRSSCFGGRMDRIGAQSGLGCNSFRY

T3: constitutively active human NPR1 mutant (W74R), recombinant antigen (human, UniProt P16066 33-473)
T3 construct: also called W74R hNPR1
T3 sequence: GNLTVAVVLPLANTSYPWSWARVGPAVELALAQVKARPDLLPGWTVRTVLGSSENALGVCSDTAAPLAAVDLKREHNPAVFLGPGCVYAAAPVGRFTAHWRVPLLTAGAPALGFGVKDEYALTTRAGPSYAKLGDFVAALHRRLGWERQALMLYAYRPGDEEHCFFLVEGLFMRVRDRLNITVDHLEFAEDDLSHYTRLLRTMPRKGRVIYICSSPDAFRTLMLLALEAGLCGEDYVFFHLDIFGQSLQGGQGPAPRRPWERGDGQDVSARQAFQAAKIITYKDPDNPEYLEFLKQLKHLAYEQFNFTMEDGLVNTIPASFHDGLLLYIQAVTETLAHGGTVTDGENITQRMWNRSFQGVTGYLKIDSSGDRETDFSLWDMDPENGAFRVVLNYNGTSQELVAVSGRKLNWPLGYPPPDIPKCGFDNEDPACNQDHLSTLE

T4: rat NPR1, recombinant antigen (rat, UniProt P18910 29-469)
T4 construct: NCBI NP_036745.1 printed; also called rNPR1
T4 sequence: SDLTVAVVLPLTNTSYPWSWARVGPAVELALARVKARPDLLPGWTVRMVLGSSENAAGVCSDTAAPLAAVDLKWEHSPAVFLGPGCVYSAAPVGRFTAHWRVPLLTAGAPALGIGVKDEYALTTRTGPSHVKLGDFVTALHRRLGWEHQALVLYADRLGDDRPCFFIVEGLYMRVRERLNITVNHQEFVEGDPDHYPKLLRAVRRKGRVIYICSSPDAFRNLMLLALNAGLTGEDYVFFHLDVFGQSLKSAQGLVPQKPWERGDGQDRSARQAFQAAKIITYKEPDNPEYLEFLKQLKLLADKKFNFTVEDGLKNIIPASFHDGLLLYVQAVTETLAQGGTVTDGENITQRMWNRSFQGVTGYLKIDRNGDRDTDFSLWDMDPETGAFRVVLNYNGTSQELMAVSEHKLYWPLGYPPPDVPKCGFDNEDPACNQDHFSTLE

T5: human NPR3 (counter target) (human, UniProt P17342 27-481, limits assumed)
T5 construct: hNPR3-hFc is named in the pannings; also called hNPR3; hNPR3-hFc
T5 sequence (looked up): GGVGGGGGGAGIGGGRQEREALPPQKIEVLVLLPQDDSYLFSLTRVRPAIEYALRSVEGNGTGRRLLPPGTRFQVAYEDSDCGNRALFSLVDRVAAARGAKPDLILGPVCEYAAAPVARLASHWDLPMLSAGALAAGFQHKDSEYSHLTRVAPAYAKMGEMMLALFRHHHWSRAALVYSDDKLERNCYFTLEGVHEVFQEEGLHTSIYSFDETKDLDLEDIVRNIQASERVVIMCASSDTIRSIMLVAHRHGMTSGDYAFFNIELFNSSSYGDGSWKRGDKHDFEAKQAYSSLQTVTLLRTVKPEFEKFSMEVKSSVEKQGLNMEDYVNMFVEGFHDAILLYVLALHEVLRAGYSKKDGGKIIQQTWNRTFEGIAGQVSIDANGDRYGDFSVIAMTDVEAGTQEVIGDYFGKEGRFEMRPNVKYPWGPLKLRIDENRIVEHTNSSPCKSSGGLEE

T6: human NPR1 (Natriuretic Peptide Receptor 1), recombinant antigen (human, UniProt P16066 33-473)
T6 construct: also called hNPR1; NPR1-hFc
T6 sequence: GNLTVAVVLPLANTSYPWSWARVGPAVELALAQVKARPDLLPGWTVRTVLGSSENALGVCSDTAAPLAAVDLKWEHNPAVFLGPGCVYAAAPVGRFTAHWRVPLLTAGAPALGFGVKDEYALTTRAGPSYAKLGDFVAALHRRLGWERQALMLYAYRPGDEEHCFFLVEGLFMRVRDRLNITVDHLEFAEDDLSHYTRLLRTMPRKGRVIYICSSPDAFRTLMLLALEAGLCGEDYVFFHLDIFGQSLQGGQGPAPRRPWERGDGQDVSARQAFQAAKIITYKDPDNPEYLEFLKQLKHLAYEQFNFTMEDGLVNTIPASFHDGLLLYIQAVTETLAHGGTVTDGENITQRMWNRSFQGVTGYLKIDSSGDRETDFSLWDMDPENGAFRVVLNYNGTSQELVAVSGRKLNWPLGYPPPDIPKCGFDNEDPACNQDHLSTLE

T7: human NPR1 expressed on CHO-K1 cells in the presence of ANP (human, UniProt P01160 124-151)
T7 construct: also called hNPR1 CHO K1 + 100 nM ANP
T7 sequence: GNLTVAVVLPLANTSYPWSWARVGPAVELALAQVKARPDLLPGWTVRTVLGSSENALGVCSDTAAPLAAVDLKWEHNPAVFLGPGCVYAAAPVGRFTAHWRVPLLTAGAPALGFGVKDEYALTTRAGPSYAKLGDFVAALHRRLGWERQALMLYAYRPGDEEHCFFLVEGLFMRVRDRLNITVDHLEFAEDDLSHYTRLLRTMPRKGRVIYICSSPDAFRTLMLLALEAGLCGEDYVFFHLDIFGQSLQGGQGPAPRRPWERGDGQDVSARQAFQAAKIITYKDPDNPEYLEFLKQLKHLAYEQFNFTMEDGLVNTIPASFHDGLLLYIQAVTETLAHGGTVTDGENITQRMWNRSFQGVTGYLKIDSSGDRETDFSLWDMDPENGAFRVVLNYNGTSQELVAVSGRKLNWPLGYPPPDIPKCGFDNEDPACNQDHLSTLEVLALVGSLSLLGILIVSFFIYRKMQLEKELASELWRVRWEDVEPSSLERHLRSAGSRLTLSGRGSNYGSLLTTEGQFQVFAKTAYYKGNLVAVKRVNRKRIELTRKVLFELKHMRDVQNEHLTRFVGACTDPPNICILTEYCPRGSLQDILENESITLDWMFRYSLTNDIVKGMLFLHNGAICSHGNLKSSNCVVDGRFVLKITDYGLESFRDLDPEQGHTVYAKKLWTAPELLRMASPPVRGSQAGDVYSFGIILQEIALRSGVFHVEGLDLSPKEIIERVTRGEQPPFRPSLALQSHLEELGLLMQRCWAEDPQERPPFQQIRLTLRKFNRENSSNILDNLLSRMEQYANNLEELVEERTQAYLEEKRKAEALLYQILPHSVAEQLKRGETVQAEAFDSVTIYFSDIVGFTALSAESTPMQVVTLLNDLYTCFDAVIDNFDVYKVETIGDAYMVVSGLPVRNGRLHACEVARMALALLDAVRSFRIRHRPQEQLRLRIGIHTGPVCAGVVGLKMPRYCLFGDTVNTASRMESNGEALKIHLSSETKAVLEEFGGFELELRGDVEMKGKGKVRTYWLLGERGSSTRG
T7 sequence (peptide): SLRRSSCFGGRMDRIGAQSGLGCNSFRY


Legend:
[1] = biological target: T1, human NPR1 expressed on CHO-K1 cells; assay: cell-based or functional assay
[2] = biological target: T1, human NPR1 expressed on CHO-K1 cells; assay: flow cytometry, 1 uM IgG
rat NPR1-ANP complex = biological target: T8, rat NPR1-ANP complex (rat); assay: ELISA, 1 uM IgG, +100 nM ANP
T8 construct: Rat receptor antigen measured in the presence of ANP; also called rNPR1 + ANP; rNPR1-ANP-complex

human NPR1-ANP complex = biological target: T2, human NPR1-ANP complex; assay: ELISA, 1 uM IgG, +100 nM ANP
[3] = biological target: T3, constitutively active human NPR1 mutant …; assay: ELISA, 1 uM IgG
[4] = biological target: T4, rat NPR1, recombinant antigen; assay: ELISA, 1 uM IgG
[5] = biological target: T5, human NPR3 (counter target); assay: ELISA, 1 uM IgG
[6] = biological target: T6, human NPR1 (Natriuretic Peptide …); assay: ELISA, 1 uM IgG
[7] = biological target: T7, human NPR1 expressed on CHO-K1 cells in …; assay: flow cytometry, 1 uM IgG, +100 nM ANP
[8] = biological target: T3, constitutively active human NPR1 mutant …; assay: ELISA, IgG titrated on the antigen without ANP [cont.]
[9] = biological target: T1, human NPR1 expressed on CHO-K1 cells; assay: flow cytometry, hNPR1 expressing CHO-K1 cells without ANP

cGMP conc [nM] at 1 uM IgG, +0.075 nM ANP [1]	cGMP conc [nM] at 1 uM IgG, without ANP [1]	flow cytometry S/BG [2]	ELISA IgG binding at 1 uM IgG (unit not given) (rat NPR1-ANP complex)	ELISA IgG binding at 1 uM IgG (unit not given) (human NPR1-ANP complex)	ELISA IgG binding at 1 uM IgG (unit not given) [3]	ELISA IgG binding at 1 uM IgG (unit not given) [4]	ELISA IgG binding at 1 uM IgG (unit not given) [5]	ELISA IgG binding at 1 uM IgG (unit not given) [6]	flow cytometry S/BG [7]	EC50 (read off the curve) [8]	binding result [9]	Binder
9 nM	4 nM	8 S/BG	3	24	53	3	6	68	44 S/BG	~2 nM		YY07 IgG (YY07_LALA) (antibody, V domains shown) VH: EVQLVQSGAEVKKPGESLKISCKGSGYSFTSYWISWVRQMPGKGLEWMGIIYPGTSYTRYSPSFQGQVTISADKSISTAYLQWSSLKASDTAMYYCARGSLPGLLGFDHWGQGTLVTVSS VL: QSVLTQPPSVSGAPGQRVTISCTGSSSNIGAGYDVHWYQQLPGTAPKLLIYGNSNRPNGVPDRFSGSKSGTSASLAITGLQAEDEADYYCQSYDSPTSSSVFGGGTKLTVLG
											no binding (tested: 1000 nM)	YY03 IgG (YY03_LALA) (antibody, V domains shown) VH: EVQLLESGGGLVQPGGSLRLSCAASGFTFSSYAISWVRQAPGKGLEWVSAISGSGGSTYYAESVKGRFTISRDNSKNTLYLQMNSLRAEDTAVYYCARESGYVYYLKFDYWGQGTLVTVSS VL: DIQMTQSPSSLSASVGDRVTITCRASQSISSYLNWYQQKPGKAPKLLIYAASSLQSGVPSRFSGSGSGTDFTLTISSLQPEDFATYYCQQHVRVPITFGQGTKVEIKR
